According to patent US5180667A, “Genes encoding eglin C mutants” (Ciba-Geigy Corporation, priority 1988, dated 1993):

Biological target: trypsin
Assay: Inhibition constant Ki, steady-state release of p-nitroaniline, trypsin
Format: biochemical
Details: only inhibitor concentration varied
Procedure: The determination of the inhibition constants Ki is carried out according to N. Braun et al. [Biol. Chem. Hoppe-Seyler 368, 299-308 (1987)] by measuring the steady-state reaction rate of the release of p-nitroaniline from proteinase-inhibitor substrate mixtures. Only the inhibitor concentration is varied. Since the curve OD405 vs. time was linear, the release of p-nitroaniline is entered at 10 to 20 minutes. Ki can be determined from the various slopes. The proteinases used are human leukocyte elastase (HLE), chymotrypsin and trypsin.

Inhibition constants, trypsin Ki (M): no inhibition
B1: Eglin C (protein, UniProt P01051 1-70, looked up)
Eglin C: TEFGSELKSFPEVVGKTVDQAREYFTLHYPQYDVYFLPEGSPVTLDLRYNRVRVFYNPGTNVVNHVPHVG
